The MegaScale stability set (Tsuboyama et al. 2023)

B1: EEHEE_rd3_0130 (parent)
chain: TKIIVNGKTFTAPTEEEAQKIAEKLAKKAGLTVHKKNGTFELK

Variants of: B1
Assay: folding stability dG (cDNA display proteolysis); higher = more stable
Details: PBS, room temperature

Compared with TKIIVNGKTFTAPTEEEAQTIAEKLAKKAGLTVHKKNGTFELK, TKIIVNGKTFTAPTEEEAQIIAEKLAKKAGLTVHKKNGTFELK is higher in “folding stability dG” value: 0.562 kcal/mol for the first, 0.836 kcal/mol for the second.

First: TKIIVNGKTFTAPTEEEAQFIAEKLAKKAGLTVHKKNGTFELK
Second: TKIIVNGKTFTAPTEEEAQNIAEKLAKKAGLTVHKKNGTFELK
The “folding stability dG” value of the first is higher: 0.767 kcal/mol for the first, 0.548 kcal/mol for the second.

Compared with TKIIVNGKTFTAPTEEEAQPIAEKLAKKAGLTVHKKNGTFELK, TKIIVNGKTFTAPTEEEAQHIAEKLAKKAGLTVHKKNGTFELK is higher in “folding stability dG” value: -0.378 kcal/mol for the first, 0.597 kcal/mol for the second.

First: TKIIVNGKTFTAPTEEEAQLIAEKLAKKAGLTVHKKNGTFELK
Second: TKIIVNGKTFTAPTEEEAQMIAEKLAKKAGLTVHKKNGTFELK
The “folding stability dG” value of the first is lower: 0.783 kcal/mol for the first, 0.854 kcal/mol for the second.

Compared with TKIIVNGKTFTAPTEEEAQQIAEKLAKKAGLTVHKKNGTFELK, TKIIVNGKTFTAPTEEEAQDIAEKLAKKAGLTVHKKNGTFELK is lower in “folding stability dG” value: 0.722 kcal/mol for the first, 0.538 kcal/mol for the second.

First: TKIIVNGKTFTAPTEEEAQEIAEKLAKKAGLTVHKKNGTFELK
Second: TKIIVNGKTFTAPTEEEAQAIAEKLAKKAGLTVHKKNGTFELK
The “folding stability dG” value of the first is lower: 0.663 kcal/mol for the first, 0.82 kcal/mol for the second.

Compared with TKIIVNGKTFTAPTEEEAQGIAEKLAKKAGLTVHKKNGTFELK, TKIIVNGKTFTAPTEEEAQRIAEKLAKKAGLTVHKKNGTFELK is higher in “folding stability dG” value: 0.122 kcal/mol for the first, 1.01 kcal/mol for the second.

Compared with TKIIVNGKTFTAPTEEEAQSIAEKLAKKAGLTVHKKNGTFELK, TKIIVNGKTFTAPTEEENQKIAEKLAKKAGLTVHKKNGTFELK is lower in “folding stability dG” value: 0.688 kcal/mol for the first, -0.938 kcal/mol for the second.

First: TKIIVNGKTFTAPTEEEQQKIAEKLAKKAGLTVHKKNGTFELK
Second: TKIIVNGKTFTAPTEEEKQKIAEKLAKKAGLTVHKKNGTFELK
The “folding stability dG” value of the first is higher: -0.715 kcal/mol for the first, -0.952 kcal/mol for the second.

Compared with TKIIVNGKTFTAPTEEEYQKIAEKLAKKAGLTVHKKNGTFELK, TKIIVNGKTFTAPTEEECQKIAEKLAKKAGLTVHKKNGTFELK is higher in “folding stability dG” value: -0.863 kcal/mol for the first, 0.561 kcal/mol for the second.

Compared with TKIIVNGKTFTAPTEEETQKIAEKLAKKAGLTVHKKNGTFELK, TKIIVNGKTFTAPTEEERQKIAEKLAKKAGLTVHKKNGTFELK is higher in “folding stability dG” value: -0.68 kcal/mol for the first, -0.569 kcal/mol for the second.

First: TKIIVNGKTFTAPTEEEFQKIAEKLAKKAGLTVHKKNGTFELK
Second: TKIIVNGKTFTAPTEEEEQKIAEKLAKKAGLTVHKKNGTFELK
The “folding stability dG” value of the first is higher: -0.368 kcal/mol for the first, -0.74 kcal/mol for the second.

First: TKIIVNGKTFTAPTEEESQKIAEKLAKKAGLTVHKKNGTFELK
Second: TKIIVNGKTFTAPTEEEIQKIAEKLAKKAGLTVHKKNGTFELK
The “folding stability dG” value of the first is lower: -0.692 kcal/mol for the first, -0.353 kcal/mol for the second.

First: TKIIVNGKTFTAPTEEEMQKIAEKLAKKAGLTVHKKNGTFELK
Second: TKIIVNGKTFTAPTEEEGQKIAEKLAKKAGLTVHKKNGTFELK
The “folding stability dG” value of the first is lower: -0.37 kcal/mol for the first, 0.375 kcal/mol for the second.

Compared with TKIIVNGKTFTAPTEEELQKIAEKLAKKAGLTVHKKNGTFELK, TKIIVNGKTFTAPTEEEWQKIAEKLAKKAGLTVHKKNGTFELK is lower in “folding stability dG” value: -0.286 kcal/mol for the first, -0.4 kcal/mol for the second.

Compared with TKIIVNGKTFTAPTEEEVQKIAEKLAKKAGLTVHKKNGTFELK, TKIIVNGKTFTAPTEEEDQKIAEKLAKKAGLTVHKKNGTFELK is lower in “folding stability dG” value: -0.585 kcal/mol for the first, -0.679 kcal/mol for the second.

Compared with TKIIVNGKTFTAPTEEEALKIAEKLAKKAGLTVHKKNGTFELK, TKIIVNGKTFTAPTEEEAFKIAEKLAKKAGLTVHKKNGTFELK is lower in “folding stability dG” value: 0.972 kcal/mol for the first, 0.959 kcal/mol for the second.

First: TKIIVNGKTFTAPTEEEAIKIAEKLAKKAGLTVHKKNGTFELK
Second: TKIIVNGKTFTAPTEEEASKIAEKLAKKAGLTVHKKNGTFELK
The “folding stability dG” value of the first is lower: 0.665 kcal/mol for the first, 0.739 kcal/mol for the second.

Going from TKIIVNGKTFTAPTEEEAEKIAEKLAKKAGLTVHKKNGTFELK to TKIIVNGKTFTAPTEEEAGKIAEKLAKKAGLTVHKKNGTFELK, the “folding stability dG” value falls from 0.914 kcal/mol to 0.357 kcal/mol.

Going from TKIIVNGKTFTAPTEEEAYKIAEKLAKKAGLTVHKKNGTFELK to TKIIVNGKTFTAPTEEEAAKIAEKLAKKAGLTVHKKNGTFELK, the “folding stability dG” value falls from 1.03 kcal/mol to 0.824 kcal/mol.

Compared with TKIIVNGKTFTAPTEEEANKIAEKLAKKAGLTVHKKNGTFELK, TKIIVNGKTFTAPTEEEAKKIAEKLAKKAGLTVHKKNGTFELK is higher in “folding stability dG” value: 0.383 kcal/mol for the first, 0.789 kcal/mol for the second.

Compared with TKIIVNGKTFTAPTEEEADKIAEKLAKKAGLTVHKKNGTFELK, TKIIVNGKTFTAPTEEEAWKIAEKLAKKAGLTVHKKNGTFELK is higher in “folding stability dG” value: -0.048 kcal/mol for the first, 1.12 kcal/mol for the second.

First: TKIIVNGKTFTAPTEEEAVKIAEKLAKKAGLTVHKKNGTFELK
Second: TKIIVNGKTFTAPTEEEAHKIAEKLAKKAGLTVHKKNGTFELK
The “folding stability dG” value of the first is lower: 0.457 kcal/mol for the first, 0.606 kcal/mol for the second.

Going from TKIIVNGKTFTAPTEEEATKIAEKLAKKAGLTVHKKNGTFELK to TKIIVNGKTFTAPTEEEARKIAEKLAKKAGLTVHKKNGTFELK, the “folding stability dG” value rises from 0.379 kcal/mol to 1.04 kcal/mol.

Going from TKIIVNGKTFTAPTEEEAMKIAEKLAKKAGLTVHKKNGTFELK to TKIIVNGKTFTAPTEEEACKIAEKLAKKAGLTVHKKNGTFELK, the “folding stability dG” value rises from 0.872 kcal/mol to 1.25 kcal/mol.

Going from TKIIVNGKTFTAPTEEEAPKIAEKLAKKAGLTVHKKNGTFELK to TKIIVNGKTFTAPTEQEAQKIAEKLAKKAGLTVHKKNGTFELK, the “folding stability dG” value rises from -0.468 kcal/mol to 0.827 kcal/mol.

Going from TKIIVNGKTFTAPTEMEAQKIAEKLAKKAGLTVHKKNGTFELK to TKIIVNGKTFTAPTEPEAQKIAEKLAKKAGLTVHKKNGTFELK, the “folding stability dG” value falls from 0.821 kcal/mol to 0.061 kcal/mol.

Going from TKIIVNGKTFTAPTENEAQKIAEKLAKKAGLTVHKKNGTFELK to TKIIVNGKTFTAPTEWEAQKIAEKLAKKAGLTVHKKNGTFELK, the “folding stability dG” value rises from 0.47 kcal/mol to 0.933 kcal/mol.

Going from TKIIVNGKTFTAPTETEAQKIAEKLAKKAGLTVHKKNGTFELK to TKIIVNGKTFTAPTEKEAQKIAEKLAKKAGLTVHKKNGTFELK, the “folding stability dG” value rises from 0.649 kcal/mol to 0.756 kcal/mol.

With TKIIVNGKTFTAPTEHEAQKIAEKLAKKAGLTVHKKNGTFELK the “folding stability dG” value was 0.749 kcal/mol.
